Results: the supplement of paper PMC10065799, “High-throughput profiling of sequence recognition by tyrosine kinases and SH2 domains using bacterial peptide display” (eLife, 2023)

How the values were obtained:
Grb2 SH2 = Grb2 SH2 (UniProt P62993); assay: SH2 binding enrichment of the phosphorylated peptide, bacterial display (enrichment ratio); higher = better substrate or ligand; peptides without Tyr show the background
SHP2-C SH2 = assay: as above
c-Src SH2 = assay: as above
FGFR3 = FGFR3 (UniProt P22607); assay: phosphorylation enrichment, bacterial display (enrichment ratio); higher = better substrate or ligand; peptides without Tyr show the background
Hck = Hck (UniProt P08631); assay: as above
EPHB1 = EPHB1 (UniProt P54762); assay: as above
Fer (mouse) = assay: as above
Jak2 = Jak2 (UniProt O60674); assay: as above
EPHB2 = EPHB2 (UniProt P29323); assay: as above
c-Src = assay: as above
Fes = Fes (UniProt P07332); assay: as above
MERTK = MERTK (UniProt Q12866); assay: as above
c-Abl (mouse) = assay: as above
AncSZ = assay: as above
Fyn = Fyn (UniProt P06241); assay: as above
FGFR1 = FGFR1 (UniProt P11362); assay: as above
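Throughout, for SH2 binding enrichment of the phosphorylated peptide, bacterial display: peptide library displayed on the E. coli surface as eCPX fusions, selected cells deep-sequenced, score is each peptide's frequency after selection divided by its frequency in the input.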
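Throughout, for phosphorylation enrichment, bacterial display: 11-residue human phosphosite peptides and single-mutation variants displayed on the E. coli surface, counted by deep sequencing, each peptide's frequency after selection divided by its frequency in the unselected input library; frequency after pTyr selection over input frequency; kinase dosed for 20-30% of maximal phosphorylation in three min.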

Fes, sequence (P07332 whole entry, looked up): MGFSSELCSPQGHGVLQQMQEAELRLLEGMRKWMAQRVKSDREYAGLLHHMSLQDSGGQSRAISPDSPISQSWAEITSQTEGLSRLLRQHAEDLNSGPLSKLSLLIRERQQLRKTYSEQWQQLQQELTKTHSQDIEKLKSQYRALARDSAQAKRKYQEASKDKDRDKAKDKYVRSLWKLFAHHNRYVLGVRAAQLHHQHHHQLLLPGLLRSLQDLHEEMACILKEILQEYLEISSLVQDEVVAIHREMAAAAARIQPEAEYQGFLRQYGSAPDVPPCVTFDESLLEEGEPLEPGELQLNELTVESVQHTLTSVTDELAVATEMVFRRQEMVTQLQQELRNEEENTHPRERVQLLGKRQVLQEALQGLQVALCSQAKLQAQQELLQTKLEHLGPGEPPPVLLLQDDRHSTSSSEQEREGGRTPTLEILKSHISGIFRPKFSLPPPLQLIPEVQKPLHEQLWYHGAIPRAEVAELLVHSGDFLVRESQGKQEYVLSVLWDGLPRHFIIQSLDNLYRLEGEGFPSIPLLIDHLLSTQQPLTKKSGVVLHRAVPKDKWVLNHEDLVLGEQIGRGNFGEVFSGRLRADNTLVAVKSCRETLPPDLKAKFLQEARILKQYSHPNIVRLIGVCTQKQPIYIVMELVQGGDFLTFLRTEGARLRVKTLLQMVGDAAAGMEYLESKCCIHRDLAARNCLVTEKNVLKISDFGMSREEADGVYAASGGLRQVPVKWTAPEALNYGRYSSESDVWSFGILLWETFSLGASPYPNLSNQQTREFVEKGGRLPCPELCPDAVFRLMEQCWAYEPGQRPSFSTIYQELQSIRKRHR
MERTK, sequence (Q12866 whole entry, looked up): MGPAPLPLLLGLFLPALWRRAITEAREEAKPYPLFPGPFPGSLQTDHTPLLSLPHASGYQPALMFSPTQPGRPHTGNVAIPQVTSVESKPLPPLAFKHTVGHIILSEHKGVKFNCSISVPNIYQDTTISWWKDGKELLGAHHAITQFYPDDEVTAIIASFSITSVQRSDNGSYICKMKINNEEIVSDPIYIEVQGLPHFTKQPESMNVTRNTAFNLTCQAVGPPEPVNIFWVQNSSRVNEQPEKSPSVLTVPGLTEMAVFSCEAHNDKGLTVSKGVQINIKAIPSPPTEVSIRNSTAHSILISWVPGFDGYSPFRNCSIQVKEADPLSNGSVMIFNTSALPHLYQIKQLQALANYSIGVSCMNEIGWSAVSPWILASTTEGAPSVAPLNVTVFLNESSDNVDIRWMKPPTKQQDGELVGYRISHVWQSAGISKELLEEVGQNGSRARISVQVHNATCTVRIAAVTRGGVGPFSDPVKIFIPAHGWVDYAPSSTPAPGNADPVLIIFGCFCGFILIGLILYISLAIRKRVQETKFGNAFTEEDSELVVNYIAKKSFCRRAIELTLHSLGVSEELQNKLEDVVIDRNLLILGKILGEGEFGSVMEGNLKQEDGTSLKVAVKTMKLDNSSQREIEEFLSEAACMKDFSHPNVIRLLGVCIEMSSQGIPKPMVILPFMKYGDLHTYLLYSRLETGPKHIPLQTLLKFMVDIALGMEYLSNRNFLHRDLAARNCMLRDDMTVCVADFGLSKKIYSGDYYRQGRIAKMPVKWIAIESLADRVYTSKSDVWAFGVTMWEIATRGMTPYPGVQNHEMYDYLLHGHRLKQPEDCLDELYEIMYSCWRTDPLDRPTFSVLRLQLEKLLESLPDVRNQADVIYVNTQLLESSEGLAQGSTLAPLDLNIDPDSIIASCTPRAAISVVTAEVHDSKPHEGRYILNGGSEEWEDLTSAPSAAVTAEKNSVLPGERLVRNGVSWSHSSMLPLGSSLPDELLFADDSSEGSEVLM
FGFR3, sequence (P22607 whole entry, looked up): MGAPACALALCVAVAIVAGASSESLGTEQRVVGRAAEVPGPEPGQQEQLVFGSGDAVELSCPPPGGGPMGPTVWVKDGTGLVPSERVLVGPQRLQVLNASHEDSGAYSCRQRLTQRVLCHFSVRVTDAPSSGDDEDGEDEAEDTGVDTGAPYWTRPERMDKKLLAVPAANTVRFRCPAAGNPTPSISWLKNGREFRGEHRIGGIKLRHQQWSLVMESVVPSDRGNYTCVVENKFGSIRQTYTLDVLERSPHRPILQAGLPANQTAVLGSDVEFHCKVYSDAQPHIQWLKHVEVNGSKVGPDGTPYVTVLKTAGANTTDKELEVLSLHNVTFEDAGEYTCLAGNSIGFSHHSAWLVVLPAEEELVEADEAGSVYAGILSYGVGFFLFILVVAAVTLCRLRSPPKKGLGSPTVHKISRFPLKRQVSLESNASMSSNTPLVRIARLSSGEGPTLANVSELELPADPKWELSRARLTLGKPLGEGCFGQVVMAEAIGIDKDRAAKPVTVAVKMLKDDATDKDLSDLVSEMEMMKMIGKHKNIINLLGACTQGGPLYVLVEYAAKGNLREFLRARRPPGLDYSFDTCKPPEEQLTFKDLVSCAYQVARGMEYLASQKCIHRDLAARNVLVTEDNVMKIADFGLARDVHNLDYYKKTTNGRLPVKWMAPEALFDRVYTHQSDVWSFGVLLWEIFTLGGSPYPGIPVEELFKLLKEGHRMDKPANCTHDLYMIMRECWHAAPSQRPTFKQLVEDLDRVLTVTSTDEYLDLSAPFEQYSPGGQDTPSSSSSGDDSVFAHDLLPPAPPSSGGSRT
EPHB1, sequence (P54762 whole entry, looked up): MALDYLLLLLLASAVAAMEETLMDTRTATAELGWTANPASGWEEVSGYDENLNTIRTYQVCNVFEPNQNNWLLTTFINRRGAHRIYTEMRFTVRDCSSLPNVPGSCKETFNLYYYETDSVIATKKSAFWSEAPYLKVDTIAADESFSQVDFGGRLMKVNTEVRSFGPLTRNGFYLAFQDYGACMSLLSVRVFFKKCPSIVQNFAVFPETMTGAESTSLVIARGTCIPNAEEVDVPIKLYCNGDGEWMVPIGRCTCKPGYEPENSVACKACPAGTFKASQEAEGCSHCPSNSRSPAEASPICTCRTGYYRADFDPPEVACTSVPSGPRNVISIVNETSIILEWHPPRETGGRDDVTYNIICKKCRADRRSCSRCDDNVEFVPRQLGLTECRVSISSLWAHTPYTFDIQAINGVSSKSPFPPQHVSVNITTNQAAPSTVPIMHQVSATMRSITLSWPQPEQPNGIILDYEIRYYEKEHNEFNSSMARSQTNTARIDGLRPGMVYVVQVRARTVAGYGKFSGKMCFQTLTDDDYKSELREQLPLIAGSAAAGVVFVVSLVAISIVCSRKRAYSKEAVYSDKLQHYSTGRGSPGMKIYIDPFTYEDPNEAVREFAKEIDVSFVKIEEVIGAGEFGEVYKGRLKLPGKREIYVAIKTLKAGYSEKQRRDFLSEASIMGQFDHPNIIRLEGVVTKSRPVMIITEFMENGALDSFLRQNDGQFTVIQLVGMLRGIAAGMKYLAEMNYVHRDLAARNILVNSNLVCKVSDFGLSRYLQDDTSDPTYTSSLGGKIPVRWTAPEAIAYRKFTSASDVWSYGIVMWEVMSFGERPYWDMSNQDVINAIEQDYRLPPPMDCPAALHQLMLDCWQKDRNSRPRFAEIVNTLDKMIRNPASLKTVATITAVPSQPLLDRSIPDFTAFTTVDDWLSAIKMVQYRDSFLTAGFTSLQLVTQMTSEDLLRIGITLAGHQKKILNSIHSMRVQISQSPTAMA
EPHB2, sequence (P29323 whole entry, looked up): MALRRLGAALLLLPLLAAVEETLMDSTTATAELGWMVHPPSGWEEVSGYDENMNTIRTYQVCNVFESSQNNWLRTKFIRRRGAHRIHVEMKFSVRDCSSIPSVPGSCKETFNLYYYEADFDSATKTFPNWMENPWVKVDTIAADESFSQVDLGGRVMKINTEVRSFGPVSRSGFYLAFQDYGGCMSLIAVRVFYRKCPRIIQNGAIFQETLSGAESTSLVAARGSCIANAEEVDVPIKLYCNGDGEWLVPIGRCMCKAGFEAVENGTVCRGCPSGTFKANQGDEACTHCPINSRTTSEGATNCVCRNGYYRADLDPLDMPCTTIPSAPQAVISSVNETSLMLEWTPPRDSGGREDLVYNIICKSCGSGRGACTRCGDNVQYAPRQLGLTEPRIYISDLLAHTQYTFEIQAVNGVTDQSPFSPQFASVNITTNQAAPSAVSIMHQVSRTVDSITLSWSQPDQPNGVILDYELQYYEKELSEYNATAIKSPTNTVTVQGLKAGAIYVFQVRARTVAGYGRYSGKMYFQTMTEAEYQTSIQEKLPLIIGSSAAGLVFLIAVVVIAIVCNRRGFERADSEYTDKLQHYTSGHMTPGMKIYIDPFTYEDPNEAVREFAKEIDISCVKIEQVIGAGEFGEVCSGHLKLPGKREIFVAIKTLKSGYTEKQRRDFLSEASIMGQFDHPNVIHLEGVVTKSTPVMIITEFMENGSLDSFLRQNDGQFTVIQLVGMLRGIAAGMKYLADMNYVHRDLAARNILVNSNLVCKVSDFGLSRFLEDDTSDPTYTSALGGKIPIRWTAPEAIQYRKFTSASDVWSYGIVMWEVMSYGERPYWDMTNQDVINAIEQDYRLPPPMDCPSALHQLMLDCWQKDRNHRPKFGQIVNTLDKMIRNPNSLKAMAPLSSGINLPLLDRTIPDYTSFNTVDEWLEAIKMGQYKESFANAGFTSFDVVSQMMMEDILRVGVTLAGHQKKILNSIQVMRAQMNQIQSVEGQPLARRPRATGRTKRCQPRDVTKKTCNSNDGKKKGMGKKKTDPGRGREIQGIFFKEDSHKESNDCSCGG

Sequence	SH2 binding enrichment (Grb2 SH2)	SH2 binding enrichment (SHP2-C SH2)	SH2 binding enrichment (c-Src SH2)	phosphorylation enrichment (FGFR3)	phosphorylation enrichment (Hck)	phosphorylation enrichment (EPHB1)	phosphorylation enrichment (Fer (mouse))	phosphorylation enrichment (Jak2)	phosphorylation enrichment (EPHB2)	phosphorylation enrichment (c-Src)	phosphorylation enrichment (Fes)	phosphorylation enrichment (MERTK)	phosphorylation enrichment (c-Abl (mouse))	phosphorylation enrichment (AncSZ)	phosphorylation enrichment (Fyn)	phosphorylation enrichment (FGFR1)
MHDKEYYSVHN [MET_Y1234_Y1230H]	0.827	0.423	0.513	2.08	0.459	0.53	0.411	0.807	0.497	0.61	0.748	0.496	0.479	0.78	0.488	3.36
MPLTEYLKQIK [CNGB3_Y200_R203Q]	0.534	0.651	0.364	0.526	0.514	0.572	0.451	0.749	0.511	0.582	0.995	0.459	0.844	0.83	0.448	0.533
MYVKSYTIHYS [F5_Y2153]	0.666	0.826	0.443	0.815	0.516	0.723	0.508	0.86	0.732	0.425	1.17	0.446	0.674	1.03	0.492	0.542
NAPNSYGRRPT [CDKN2A_Y44_I49T]	0.599	0.615	0.567	0.499	0.424	0.452	0.38	1.11	0.281	0.528	0.717	0.593	0.79	0.784	0.402	0.343
NDHHVYLEGTL [ALDOB_Y223]	0.995	0.646	1.72	0.578	0.53	0.494	0.46	0.662	0.509	0.421	0.756	0.435	0.555	0.718	0.468	0.494
NELTFYCCKKD [CD59_Y87_YF]	0.938	0.707	0.503	0.715	0.46	0.514	0.461	1.29	0.739	0.436	1.28	0.466	0.808	1.39	0.452	0.54
NELTFYCFKKD [CD59_Y87_C89Y_YF]	0.754	0.504	0.404	0.614	0.448	0.541	0.591	1.12	0.492	0.35	1.22	0.381	0.758	0.96	0.412	0.456
NFRTTCVNANE [KCNH2_Y475_Y475C]	0.723	0.536	0.387	0.619	0.483	0.53	0.464	0.979	0.605	0.428	0.955	0.423	0.808	0.974	0.53	0.528
NGVSYYINLCQ [IGF2R_Y2025]	0.717	0.488	0.466	1.04	0.581	0.787	0.548	1.38	0.548	0.374	1.38	0.417	0.916	1.19	0.449	0.525
NHRNQYQALKT [CLSPN_Y887_P892T]	0.994	1	1.17	0.439	0.506	0.422	0.499	0.48	0.43	0.364	0.656	0.4	0.753	0.536	0.451	0.503
NKPTVYGVSPN [ABL1_Y226]	0.899	0.523	0.501	0.446	0.603	0.399	0.443	0.478	0.373	0.659	0.623	0.395	0.67	0.547	0.55	0.376
NLMPAYYKCIQ [CYP21A2_Y190]	0.596	0.444	0.522	0.866	0.507	0.708	0.626	1.34	0.496	0.51	1.28	0.57	1.24	1.09	0.432	0.57
NLNGKYYKPRA [ANGPTL3_Y417_N418Y]	1.3	0.974	0.861	0.445	0.312	0.404	0.354	0.617	0.324	0.406	0.57	0.304	0.61	0.474	0.241	0.408
NNDLCYWVPEL [IARS1_Y434]	0.813	0.791	0.514	5.02	2.13	4.43	0.643	3.15	5.52	2.17	1.22	4.55	8.63	2.86	1.92	5.92
PAGSGYPAFLG [ATP6V1A_Y374_D371G_YF]	0.828	0.778	0.538	0.794	0.626	0.634	0.512	0.687	1.17	0.735	1.13	0.469	0.869	1	0.478	0.737
PASLSYLSFEG [EXOSC3_Y143]	0.762	1.11	0.696	0.742	0.602	0.745	0.501	1.18	0.789	1.1	0.954	0.661	0.619	0.942	0.819	0.591
PEAALYGRFTF [FYN_Y440_I445F]	0.652	0.563	0.328	0.971	8.89	1.14	2.75	1.41	1.2	7.87	1.6	5.92	4.39	1.21	10.1	1.29

Now from value to sequence, other results behind:

SH2 binding enrichment (Grb2 SH2)	SH2 binding enrichment (SHP2-C SH2)	SH2 binding enrichment (c-Src SH2)	Sequence	phosphorylation enrichment (FGFR3)	phosphorylation enrichment (Hck)	phosphorylation enrichment (EPHB1)	phosphorylation enrichment (Fer (mouse))	phosphorylation enrichment (Jak2)	phosphorylation enrichment (EPHB2)	phosphorylation enrichment (c-Src)	phosphorylation enrichment (Fes)	phosphorylation enrichment (MERTK)	phosphorylation enrichment (c-Abl (mouse))	phosphorylation enrichment (AncSZ)	phosphorylation enrichment (Fyn)	phosphorylation enrichment (FGFR1)
4.43	0.706	2.21	MNKNAYHNVTT [ST3GAL6_Y306_A311T]	0.495	0.385	0.358	0.322	0.434	0.352	0.364	0.426	0.412	0.525	0.497	0.34	0.358
1.15	0.749	0.721	MTYMFYRENLR [NLRP14_Y443_V441M]	0.753	1.97	0.948	0.456	1.1	1	2.72	1.19	0.608	0.751	1.33	1.48	0.628
0.826	19.3	12.1	NGSKGYAYVHF [PABPC5_Y147]	0.718	0.499	0.553	0.516	0.961	0.61	0.456	0.904	0.519	0.707	1.08	0.493	0.736
1.33	1.4	1.11	NHFKICNLCAE [PTEN_Y68_Y68C_YF]	0.544	0.413	0.461	0.4	0.682	0.468	0.486	0.687	0.484	0.75	0.609	0.415	0.401
1.11	0.949	1.1	NPEACYQRLKK [TK2_Y190_T188A]	0.471	0.802	0.417	0.419	0.892	0.507	0.685	0.597	0.484	0.558	0.63	0.474	0.381
0.688	0.516	0.604	NREGVYTVFAP [TGFBI_Y537]	1.07	10	2.35	8.74	0.862	2.04	8.95	1.11	11.4	1.57	1.54	13.3	0.885
1.51	1.66	0.98	NTGFFYDLFGG [PTPN11_Y63_D61Y_YF]	0.786	1.52	0.693	0.77	1.19	0.659	2.85	1.31	3.4	0.869	1.24	2.42	0.509
1.33	1.56	5.74	NTGYYYDLYGG [PTPN11_Y63_D61Y]	11.3	6.15	11.3	3.4	4.73	10.6	4.67	1.25	8.78	0.971	1.73	5.76	13.9
0.925	5.85	1.26	PANTVYSTVEI [SLAMF7_Y304]	1.29	9.13	2.2	23.3	1.47	1.83	7.87	2.16	7.46	6.76	1.59	10.2	1.43
1.47	1.65	0.766	PASWTYVRWFD [PTDSS1_Y274]	1.35	1.14	1.12	0.729	1.79	1.1	1.01	1.79	0.51	1.04	1.71	0.669	0.907
0.605	0.781	0.385	PDGREYIYVDP [PDGFRA_Y572_H570R]	5.18	1.28	3.98	0.983	1.88	2.74	1.77	1.35	1.42	1.93	3.36	1.07	8.67
1.06	1.11	0.664	PEIIAYQPFGK [PRKCG_Y529_YF]	0.796	0.798	0.635	0.672	0.976	0.645	1.07	1.1	0.653	0.672	1.03	0.688	0.777
